Consider 77 sequences from the supplement of paper PMC7877785.

± gives the uncertainty stated by the source.

The series can be described thus: self-splicing fitness, log relative to wild type (ln ratio); higher = more splicing; Tetrahymena group I intron in knt gene, E. coli kanamycin selection, DiMSum; sequences stand for … in CUCUCU…GGAGGGAAAAGUUAUCAGGCAUGCACCUGGUAGCUAGUCUUUAAACCAAUAGAUUGCAUCGGUUUAAAAGGCAAGACCGUCAAAUUGCGGGAAAGGGGUCAACAGCCGUUCAGUACCAAGUCUCAGGGGAAACUUUGAGAUGGCCUUGCAAAGGGUAUGGUAAUAAGCUGACGGACAUGGUCCUAACCACGCAGCCAAGUCCUAAGUCAACAGAUCUUCUGUUGAUAUGGAUGCAGUUCACAGACUAAAUGUCGGUCGGGGAAGAUGUAUUCUUCUCAUAAGAUAUAGUCGGACCUCUCCUUAAUGGGAGCUAGCGGAUGAAGUGAUGCAACACUGGAGCCGCUGGGAACUAAUUUGUAUGCGAAAGUAUAUUGAUUAGUUUUGGAGUACUCGUGGUCG
In short, it runs like this: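 Six replicate transformations of E. coli BL21(DE3) with a pET-22b(+) library were grown overnight at 37°C or 30°C. The library randomised all eight P1ex-region intron nucleotides, the intron lying in the knt kanamycin-resistance gene, and plates were LB agar with or without 25 μg/mL kanamycin plus 100 μg/mL carbenicillin, 50 μM IPTG and 0.2% rhamnose. Pooled colonies were amplicon-sequenced on an Illumina HiSeq 2500, and fitness is the DiMSum error-weighted combination of wild-type-normalised replicate fold changes, kanamycin versus none.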

Consider GUCGAGCAAUAUUACGCACA, for which the “self-splicing fitness (ln)” value is, setting by setting: (30 °C) -1.76 ± 0.21; (37 °C) -0.707 ± 0.18.
The like results for GCCCAGCAAUAUUACGUACG were, in that order, -3.98 ± 0.37 and -1.41 ± 0.18.
The like results for ACCGAGCAAUAUUACGUUAU were, in that order, -3.78 ± 0.14 and -2.6 ± 0.15.
Regarding CACUAGCAAUAUUACGAUAA, the “self-splicing fitness (ln)” value by setting is: (30 °C) -3.35 ± 0.2; (37 °C) -1.59 ± 0.15.
The like results for UAAUAGCAAUAUUACGCAAC were, in that order, -2.64 ± 0.4 and -1.73 ± 0.37.
Consider CUCUAGCAAUAUUACGAUCU, for which the “self-splicing fitness (ln)” value (37 °C) was -1.9 ± 0.3.
Take UUCCAGCAAUAUUACGACCU: the “self-splicing fitness (ln)” value is -2.38 ± 0.26 (30 °C) and -3.19 ± 0.39 (37 °C).
The like results for GGGGAGCAAUAUUACGUGGC were, in that order, -3.07 ± 0.48 and -1.12 ± 0.47.
The like results for AUCCAGCAAUAUUACGCUCG were, in that order, -1.75 ± 0.26 and -0.356 ± 0.22.
In the case of CCUGAGCAAUAUUACGGCGG, the “self-splicing fitness (ln)” value (30 °C) was -2.37 ± 0.13 and the “self-splicing fitness (ln)” value (37 °C) was -1.92 ± 0.17.
For AUCGAGCAAUAUUACGGGUC the same measures were -3.91 ± 0.19 and -3.15 ± 0.18.
On to ACGGAGCAAUAUUACGAAUU, for which the “self-splicing fitness (ln)” value by setting is: (30 °C) -3.52 ± 0.26; (37 °C) -2.5 ± 0.27.
The like results for UAUCAGCAAUAUUACGGCAG were, in that order, -0.148 ± 0.075 and 0.0916 ± 0.089.
For UCAUAGCAAUAUUACGAACG the same measures were -0.967 ± 0.085 and -0.602 ± 0.12.
Turning to UAAUAGCAAUAUUACGUAUG, the “self-splicing fitness (ln)” value is -1.88 ± 0.12 (30 °C) and -0.28 ± 0.13 (37 °C).
For CAGCAGCAAUAUUACGGGUA the same measures were -3.24 ± 0.19 and -1.73 ± 0.13.
For AGUCAGCAAUAUUACGUUAG the same measures were -3.63 ± 0.17 and -1.43 ± 0.12.
For AUUAAGCAAUAUUACGAGUC the same measures were -3.25 ± 0.15 and -3.29 ± 0.21.
As to GCUGAGCAAUAUUACGAGGU, the “self-splicing fitness (ln)” value is -3.72 ± 0.29 (30 °C) and -1.74 ± 0.22 (37 °C).
For GGUGAGCAAUAUUACGUUAU the same measures were -3.23 ± 0.2 and -1.84 ± 0.19.
The like results for CUGUAGCAAUAUUACGUGUA were, in that order, -4.12 ± 0.3 and -2.05 ± 0.21.
For AAAUAGCAAUAUUACGAAAG, the “self-splicing fitness (ln)” value is, setting by setting: (30 °C) -3.48 ± 0.18; (37 °C) -1.6 ± 0.14.
The like results for GCAAAGCAAUAUUACGGUGA were, in that order, -0.987 ± 0.079 and 0.221 ± 0.098.
AGUCAGCAAUAUUACGUGCG: the “self-splicing fitness (ln)” value reads like this: (30 °C) -0.277 ± 0.078; (37 °C) -0.317 ± 0.088.
For AAAUAGCAAUAUUACGAUCU the same measures were -0.0304 ± 0.11 and 0.867 ± 0.13.
As to UCAUAGCAAUAUUACGCAGC, the “self-splicing fitness (ln)” value reads like this: (30 °C) -3.15 ± 0.35; (37 °C) -1.03 ± 0.23.
Turning to GUCUAGCAAUAUUACGGCUU, the “self-splicing fitness (ln)” value is, setting by setting: (30 °C) -0.982 ± 0.12; (37 °C) 0.12 ± 0.14.
For UCAUAGCAAUAUUACGGAGA the same measures were -1.95 ± 0.17 and -0.994 ± 0.13.
The like results for CCGUAGCAAUAUUACGGGUU were, in that order, -3.9 ± 0.17 and -1.57 ± 0.16.
With CCAUAGCAAUAUUACGGCGA, the “self-splicing fitness (ln)” value runs as follows: (30 °C) -2.03 ± 0.26; (37 °C) -1.92 ± 0.23.
The like results for GACAAGCAAUAUUACGACUA were, in that order, -0.408 ± 0.058 and 0.117 ± 0.066.
The like results for AUCGAGCAAUAUUACGCGGC were, in that order, -2.86 ± 0.5 and -3.13 ± 0.47.
As for GAUCAGCAAUAUUACGGAGG, the “self-splicing fitness (ln)” value reads like this: (30 °C) -3.86 ± 0.24; (37 °C) -1.82 ± 0.15.
Turning to UAGGAGCAAUAUUACGGACG, the “self-splicing fitness (ln)” value (37 °C) is -0.862 ± 0.38.
With CCUCAGCAAUAUUACGACGA, the “self-splicing fitness (ln)” value is, setting by setting: (30 °C) -4.04 ± 0.33; (37 °C) -2.86 ± 0.3.
For UCUGAGCAAUAUUACGUUGA, the “self-splicing fitness (ln)” value runs as follows: (30 °C) -1.89 ± 0.1; (37 °C) -0.656 ± 0.085.
Regarding UGGUAGCAAUAUUACGCCUA, the “self-splicing fitness (ln)” value is, setting by setting: (30 °C) 0.144 ± 0.11; (37 °C) 0.464 ± 0.12.
For UCCCAGCAAUAUUACGAACG the same measures were -2.94 ± 0.31 and -2.39 ± 0.29.
For AUGAAGCAAUAUUACGAUGA the same measures were -0.515 ± 0.07 and 0.274 ± 0.089.
With UAUCAGCAAUAUUACGCGAC, the “self-splicing fitness (ln)” value by setting is: (30 °C) -3.07 ± 0.37; (37 °C) -2.3 ± 0.33.
The like results for AAUUAGCAAUAUUACGUUAA were, in that order, -1.19 ± 0.12 and -0.801 ± 0.17.
For GUGUAGCAAUAUUACGAUUC, the “self-splicing fitness (ln)” value is 0.325 ± 0.094 (30 °C) and -0.738 ± 0.088 (37 °C).
For GUCAAGCAAUAUUACGGAAA the same measures were -2.28 ± 0.14 and -1.72 ± 0.12.
For GCUUAGCAAUAUUACGAGUC the same measures were -2.18 ± 0.16 and -2.22 ± 0.22.
The like results for UGAGAGCAAUAUUACGUACG were, in that order, -2.03 ± 0.13 and -1.59 ± 0.22.
On to UUGGAGCAAUAUUACGAGGU, for which the “self-splicing fitness (ln)” value (30 °C) was -2.02 ± 0.47.
As for UAUGAGCAAUAUUACGGUAG, the “self-splicing fitness (ln)” value is -1.79 ± 0.37 (30 °C) and -1.88 ± 0.36 (37 °C).
In the case of UUGGAGCAAUAUUACGUGGG, the “self-splicing fitness (ln)” value (30 °C) is -2.17 ± 0.33.
For UAUCAGCAAUAUUACGCCUA, the “self-splicing fitness (ln)” value by setting is: (30 °C) 0.206 ± 0.11; (37 °C) 0.701 ± 0.13.
With CUCCAGCAAUAUUACGUGCU, the “self-splicing fitness (ln)” value reads like this: (30 °C) -3.06 ± 0.11; (37 °C) -2.58 ± 0.14.
For AAUUAGCAAUAUUACGCCAU the same measures were -2.49 ± 0.19 and -1.04 ± 0.16.
The like results for UUAUAGCAAUAUUACGGCAU were, in that order, -2.47 ± 0.18 and -2.3 ± 0.25.
Take GGCGAGCAAUAUUACGUGUA: the “self-splicing fitness (ln)” value reads like this: (30 °C) -2.41 ± 0.15; (37 °C) -1.16 ± 0.14.
As for CCUGAGCAAUAUUACGGUUG, the “self-splicing fitness (ln)” value (30 °C) was -3.44 ± 0.13 and the “self-splicing fitness (ln)” value (37 °C) was -1.3 ± 0.1.
The like results for UAGCAGCAAUAUUACGGUAA were, in that order, -1.32 ± 0.09 and -1.13 ± 0.11.
For AAGAAGCAAUAUUACGUUCG the same measures were -0.932 ± 0.084 and -0.625 ± 0.1.
For UGUGAGCAAUAUUACGCUGU the same measures were -3.47 ± 0.18 and -2.66 ± 0.19.
As for CGCCAGCAAUAUUACGAGCG, the “self-splicing fitness (ln)” value (30 °C) was -2.66 ± 0.17 and the “self-splicing fitness (ln)” value (37 °C) is -2.56 ± 0.23.
For AUGGAGCAAUAUUACGGUUU the same measures were -2.56 ± 0.26 and -2.26 ± 0.21.
In the case of CCGAAGCAAUAUUACGGUCA, the “self-splicing fitness (ln)” value was -3.56 ± 0.2 (30 °C) and -2.55 ± 0.18 (37 °C).
With UUGCAGCAAUAUUACGCGUC, the “self-splicing fitness (ln)” value is -3.44 ± 0.15 (30 °C) and -1.61 ± 0.14 (37 °C).
Turning to CAUAAGCAAUAUUACGGUGG, the “self-splicing fitness (ln)” value by setting is: (30 °C) -1.24 ± 0.075; (37 °C) -0.683 ± 0.088.
For CCCUAGCAAUAUUACGGGCU the same measures were -4.04 ± 0.25 and -2.71 ± 0.18.
For the sequence UUACAGCAAUAUUACGCCCU, the “self-splicing fitness (ln)” value (30 °C) is -2.55 ± 0.24 and the “self-splicing fitness (ln)” value (37 °C) is -0.401 ± 0.26.
Regarding GGCGAGCAAUAUUACGCUGG, for the setting “30 °C”, the “self-splicing fitness (ln)” value is -1.39 ± 0.36.
GUAGAGCAAUAUUACGAUUA: the “self-splicing fitness (ln)” value (30 °C) was -0.625 ± 0.1 and the “self-splicing fitness (ln)” value (37 °C) was -0.396 ± 0.14.
On to UGGUAGCAAUAUUACGUCGC, for which the “self-splicing fitness (ln)” value is, setting by setting: (30 °C) -3.78 ± 0.21; (37 °C) -2.88 ± 0.19.
For AAGGAGCAAUAUUACGUGCC the same measures were -3.03 ± 0.37 and -0.905 ± 0.39.
Take GUCGAGCAAUAUUACGAGGA: the “self-splicing fitness (ln)” value (37 °C) is -2.44 ± 0.49.
As to GCCUAGCAAUAUUACGGGAC, the “self-splicing fitness (ln)” value reads like this: (30 °C) -2.4 ± 0.13; (37 °C) -0.0283 ± 0.1.
For CUCUAGCAAUAUUACGGCAA, where the note is “30 °C”, the “self-splicing fitness (ln)” value was -2.38 ± 0.2.
As for AUGAAGCAAUAUUACGAUUC, the “self-splicing fitness (ln)” value by setting is: (30 °C) -2.23 ± 0.1; (37 °C) -1.33 ± 0.14.
For AAGAAGCAAUAUUACGCGCA the same measures were 0.0488 ± 0.077 and 0.115 ± 0.1.
For UCCCAGCAAUAUUACGCAAG, the “self-splicing fitness (ln)” value was -3.45 ± 0.16 (30 °C) and -2.69 ± 0.21 (37 °C).
For GAGAAGCAAUAUUACGUUCG the same measures were -1.38 ± 0.072 and -0.765 ± 0.095.
Regarding GAGAAGCAAUAUUACGGCGG, the “self-splicing fitness (ln)” value (30 °C) is -1.9 ± 0.12 and the “self-splicing fitness (ln)” value (37 °C) was -1.25 ± 0.15.
The like results for CCAUAGCAAUAUUACGAUCC were, in that order, -3.2 ± 0.35 and -1.43 ± 0.41.
